Target: the molecule itself
Experiment: cryo-EM structure; purified MmIR dimer fraction (20 mM Hepes-Na pH 7.4, 150 mM NaCl, 0.03% DDM) mixed with synthesized S597-component-2 (S597-N20) at 1:4 (m:m), incubated half an hour, 4 °C, concentrated to 6 mg/ml

B1: full-length mouse insulin receptor, short isoform, with kinase-dead mutation D1122N and mutation Y962F (receptor, UniProt P15208 28-1372, looked up)
chain: HLYPGEVCPGMDIRNNLTRLHELENCSVIEGHLQILLMFKTRPEDFRDLSFPKLIMITDYLLLFRVYGLESLKDLFPNLTVIRGSRLFFNYALVIFEMVHLKELGLYNLMNITRGSVRIEKNNELCYLATIDWSRILDSVEDNYIVLNKDDNEECGDVCPGTAKGKTNCPATVINGQFVERCWTHSHCQKVCPTICKSHGCTAEGLCCHKECLGNCSEPDDPTKCVACRNFYLDGQCVETCPPPYYHFQDWRCVNFSFCQDLHFKCRNSRKPGCHQYVIHNNKCIPECPSGYTMNSSNLMCTPCLGPCPKVCQILEGEKTIDSVTSAQELRGCTVINGSLIINIRGGNNLAAELEANLGLIEEISGFLKIRRSYALVSLSFFRKLHLIRGETLEIGNYSFYALDNQNLRQLWDWSKHNLTITQGKLFFHYNPKLCLSEIHKMEEVSGTKGRQERNDIALKTNGDQASCENELLKFSFIRTSFDKILLRWEPYWPPDFRDLLGFMLFYKEAPYQNVTEFDGQDACGSNSWTVVDIDPPQRSNDPKSQTPSHPGWLMRGLKPWTQYAIFVKTLVTFSDERRTYGAKSDIIYVQTDATNPSVPLDPISVSNSSSQIILKWKPPSDPNGNITHYLVYWERQAEDSELFELDYCLKGLKLPSRTWSPPFESDDSQKHNQSEYDDSASECCSCPKTDSQILKELEESSFRKTFEDYLHNVVFVPRPSRKRRSLEEVGNVTATTLTLPDFPNVSSTIVPTSQEEHRPFEKVVNKESLVISGLRHFTGYRIELQACNQDSPDERCSVAAYVSARTMPEAKADDIVGPVTHEIFENNVVHLMWQEPKEPNGLIVLYEVSYRRYGDEELHLCVSRKHFALERGCRLRGLSPGNYSVRVRATSLAGNGSWTEPTYFYVTDYLDVPSNIAKIIIGPLIFVFLFSVVIGSIYLFLRKRQPDGPMGPLYASSNPEFLSASDVFPSSVYVPDEWEVPREKITLLRELGQGSFGMVYEGNAKDIIKGEAETRVAVKTVNESASLRERIEFLNEASVMKGFTCHHVVRLLGVVSKGQPTLVVMELMAHGDLKSHLRSLRPDAENNPGRPPPTLQEMIQMTAEIADGMAYLNAKKFVHRNLAARNCMVAHDFTVKIGDFGMTRDIYETDYYRKGGKGLLPVRWMSPESLKDGVFTASSDMWSFGVVLWEITSLAEQPYQGLSNEQVLKFVMDGGYLDPPDNCPERLTDLMRMCWQFNPKMRPTFLEIVNLLKDDLHPSFPEVSFFYSEENKAPESEELEMEFEDMENVPLDRSSHCQREEAGGREGGSSLSIKRTYDEHIPYTHMNGGKKNGRVLTLPRSNPS
notes: insulin receptor, mouse, short isoform (A isoform), full length; Disulfide-linked dimer; The proreceptor is written as one chain; An HRV-3C site lay between the receptor and Tsi3; also called MmIR; IR; source: FreeStyle 293-F cells (BacMam), purified (DDM extraction, Tse3 resin, HRV-3C elution, Superose 6; dimer fraction); not shown: Tsi3, C-terminal, cleaved
B1: binds.

From paper PMC9508239 (Nature Communications, 2022)
